These results are taken from patent US20240301054A1, “TIM-3 INHIBITORS AND USES THEREOF” (Novartis AG, priority 2019, published 2024).

The target in this test is T1, interaction between TIM-3 and Galectin-9 (Homo sapiens, UniProt Q8TDQ0).
T1 construct: purchased R&D Systems
The test can be described thus: Plate-based (MesoScale) competition assay of the TIM-3/Galectin-9 interaction. In kind it is binding. Particulars: TIM-3 fusion protein coated at 2 μg/ml; SULFOTag Galectin-9 100 nM; FIG. 1. As to the method:
TIM-3 fusion protein (R&D Systems) was coated on a standard MesoScale 96 well plate (Meso Scale Discovery) at 2 μg/ml in PBS (Phosphate Buffered Saline) and incubated for six hours at room temperature. The plate was washed three times with PBST (PBS buffer containing 0.05% Tween-20) and blocked with PBS containing 5% Probumin (Millipore) overnight at 4° C. After incubation, the plate was washed three times with PBST and unlabeled antibody (F38-2E2 (BioLegend); MBG453; MBG453 F(ab′)2; MBG453 F(ab); or control recombinant human Galectin-9 protein) diluted in Assay Diluent (2% Probumin, 0.1% Tween-20, 0.1% Triton X-100 (Sigma) with 10% StabilGuard (SurModics)), was added in serial dilutions to the plate and incubated for one hour on an orbital shaker at room temperature. The plate was then washed three times with PBST, and Galectin-9 labeled with MSD SULFOTag (Meso Scale Discovery) as per manufacturer's instructions, diluted in Assay Diluent to 100 nM, was added to the plate for one hour at room temperature on an orbital shaker. The plate was again washed three times with PBST, and Read Buffer T (1×) was added to the plate. The plate was read on MA600 Imager, and competition was assessed as a measure of the ability of the antibody to block Ga19-SULFOTag signal to TIM-3 receptor.

B1: control Galectin-9 protein: control recombinant human Galectin-9 protein, unlabeled (protein)
chain: AFSGSQAPYLSPAVPFSGTIQGGLQDGLQITVNGTVLSSSGTRFAVNFQTGFSGNDIAFHFNPRFEDGGYVVCNTRQNGSWGPEERKTHMPFQKGMPFDLCFLVQSSDFKVMVNGILFVQYFHRVPFHRVDTISVNGSVQLSYISFQPPGVWPANPAPITQTVIHTVQSAPGQMFSTPAIPPMMYPHPAYPMPFITTILGGLYPSKSILLSGTVLPSAQRFHINLCSGNHIAFHLNPRFDENAVVRNTQIDNSWGSEERSLPRKMPFVRGQSFSVWILCEAHCLKVAVDGQHLFEYYHRLRNLPTINRLEVGGDIQLTHVQT
As for B1, the “ability of the antibody to block Ga19-SULFOTag signal to TIM-3 receptor (interaction between TIM-3 and Galectin-9)” value was “did not”.
